Patent publication US20140186365A1

B1: VH-3B11 (protein)
VH: EVQLVQSGAEVKKPGESLKISCKGSGYSFTSYWIGWVRQMPGKGLEWMGIVYPGDSDTRYSPSFQGQVTISAGKSISTAYLQWSSLKASDTAMYYCARPSMGATTWISAFDIWGQGTTVTVSSSASGAGS
B2: VH-1C5 (protein)
VH: QVQLQQSGPGLVKPSQTLSLTCAISGDSVSSNSAAWNWIRQSPSRGLEWLGRTYYRSKWYNDYAVSVKSRITINPDTSKNQFSLQLNSVTPEDTAVYYCARTPSTGTLDCWGRGTLVTVSSSASGAGS
B3: VH-3C2 (protein)
VH: QVQLQQSGPGLVKPSQTLSLTCAISGDSVSSKSAAWNWIRQSPSRGLEWLGRTYYRSKWYNDYVVSLRSRITVSPDTSKNQFSLQLNSVTPEDTAMYYCARTRGHIDLWGRGTLVTVSSSASGAGS
B4: VH-4D6 (protein)
VH: EVQLVQSGAEVKKPGESLKISCKGSGYSFTSYWIGWVRQMPGKGLEWMGIIYPGDSDTRYSPSFQGQVTISADKSISTAYLQWSSLKASDTAMYYCARLDCSGGSCYYYYYGMDVWGQGTTVTVSSSASGAGS
B5: VH-3E11 (protein)
VH: QVQLQQSGPGLVKPSQTLSLTCAISGDSVSGNSAAWNWIRQSPSRGLEWLGRTYYRSKWYIGYAASLQSRLAINADTSKNQLSLRLSSVTPEDTAVYYCVGRHYSGHSGAFDTWGHGTMVTVSSSASGAGS

Each binder was assayed against Human Serum Albumin (human) (UniProt P02768) (assay: BLI (Octet Red), HSA on sensor tips, VH domain in solution, 1:1 fit).
Chain of UniProt P02768 (P02768 25-609 limits assumed): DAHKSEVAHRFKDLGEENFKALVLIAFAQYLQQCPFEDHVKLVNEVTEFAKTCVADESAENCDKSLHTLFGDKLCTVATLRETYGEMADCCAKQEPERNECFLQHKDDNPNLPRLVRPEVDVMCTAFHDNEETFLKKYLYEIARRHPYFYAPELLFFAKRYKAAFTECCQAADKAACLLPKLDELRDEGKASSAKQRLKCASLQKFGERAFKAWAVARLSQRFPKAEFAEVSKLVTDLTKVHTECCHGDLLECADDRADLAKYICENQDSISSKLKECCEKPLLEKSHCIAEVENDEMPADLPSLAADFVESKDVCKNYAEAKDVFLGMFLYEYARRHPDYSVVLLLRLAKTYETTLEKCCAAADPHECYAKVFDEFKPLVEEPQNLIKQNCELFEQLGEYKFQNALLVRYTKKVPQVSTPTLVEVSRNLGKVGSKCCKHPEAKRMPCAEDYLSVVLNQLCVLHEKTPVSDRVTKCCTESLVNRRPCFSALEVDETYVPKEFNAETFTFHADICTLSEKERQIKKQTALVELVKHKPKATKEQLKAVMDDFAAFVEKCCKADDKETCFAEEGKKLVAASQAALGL
In the case of B1, the Kd is reported as 18.1 nM, the koff is reported as 0.000126 s⁻¹ and the kon is reported as 6980 M⁻¹ s⁻¹. Binder B2 has a Kd of 18.2 nM, a koff of 9.58e-05 s⁻¹ and a kon of 5260 M⁻¹ s⁻¹. Work on B3 yielded a Kd of 23.8 nM, a koff of 0.000155 s⁻¹ and a kon of 6500 M⁻¹ s⁻¹. Work on B4 yielded a Kd of 13.3 nM, a koff of 0.000141 s⁻¹ and a kon of 10600 M⁻¹ s⁻¹. B5 was tested, and the Kd was 23.6 nM, the koff was 0.000133 s⁻¹ and the kon was 5630 M⁻¹ s⁻¹.

These binders were tested against Mouse Serum Albumin (mouse) (UniProt P07724) (assay: BLI (Octet Red), MSA on sensor tips, VH domain in solution, 1:1 fit).
Chain of UniProt P07724 (P07724 25-608 limits assumed): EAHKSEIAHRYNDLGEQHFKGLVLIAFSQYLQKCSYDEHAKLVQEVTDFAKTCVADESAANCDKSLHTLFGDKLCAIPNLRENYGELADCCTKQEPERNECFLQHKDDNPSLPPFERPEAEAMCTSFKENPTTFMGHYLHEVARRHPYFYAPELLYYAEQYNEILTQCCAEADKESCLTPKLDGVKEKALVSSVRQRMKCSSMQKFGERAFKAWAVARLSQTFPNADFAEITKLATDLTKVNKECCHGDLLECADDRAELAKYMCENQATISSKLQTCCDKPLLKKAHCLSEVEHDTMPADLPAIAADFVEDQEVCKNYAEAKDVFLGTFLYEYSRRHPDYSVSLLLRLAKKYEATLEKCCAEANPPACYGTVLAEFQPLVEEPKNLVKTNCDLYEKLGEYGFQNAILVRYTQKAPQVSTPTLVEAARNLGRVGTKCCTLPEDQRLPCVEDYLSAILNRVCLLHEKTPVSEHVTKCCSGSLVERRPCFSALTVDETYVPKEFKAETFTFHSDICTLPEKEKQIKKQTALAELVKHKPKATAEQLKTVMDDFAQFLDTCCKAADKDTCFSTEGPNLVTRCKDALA
Work on B1 yielded a Kd of 9.61 nM, a koff of 7.88e-05 s⁻¹ and a kon of 8200 M⁻¹ s⁻¹. Binder B2 has a Kd of 6.32 nM, a koff of 5.42e-05 s⁻¹ and a kon of 8570 M⁻¹ s⁻¹. With B3 the Kd was 31.8 nM, the koff was 0.000218 s⁻¹ and the kon was 6870 M⁻¹ s⁻¹. B4 showed a Kd of 12.6 nM, a koff of 0.000105 s⁻¹ and a kon of 8340 M⁻¹ s⁻¹. Binder B5 has a Kd of 39.3 nM, a koff of 0.000226 s⁻¹ and a kon of 5750 M⁻¹ s⁻¹.
